Results reported in patent US20170015742A1 (published 2017).
Positions count from the first letter of the chain named. Names may count otherwise.

B1: CODV003 (bispecific antibody, human IgG1, kappa, L234A L235A)
heavy: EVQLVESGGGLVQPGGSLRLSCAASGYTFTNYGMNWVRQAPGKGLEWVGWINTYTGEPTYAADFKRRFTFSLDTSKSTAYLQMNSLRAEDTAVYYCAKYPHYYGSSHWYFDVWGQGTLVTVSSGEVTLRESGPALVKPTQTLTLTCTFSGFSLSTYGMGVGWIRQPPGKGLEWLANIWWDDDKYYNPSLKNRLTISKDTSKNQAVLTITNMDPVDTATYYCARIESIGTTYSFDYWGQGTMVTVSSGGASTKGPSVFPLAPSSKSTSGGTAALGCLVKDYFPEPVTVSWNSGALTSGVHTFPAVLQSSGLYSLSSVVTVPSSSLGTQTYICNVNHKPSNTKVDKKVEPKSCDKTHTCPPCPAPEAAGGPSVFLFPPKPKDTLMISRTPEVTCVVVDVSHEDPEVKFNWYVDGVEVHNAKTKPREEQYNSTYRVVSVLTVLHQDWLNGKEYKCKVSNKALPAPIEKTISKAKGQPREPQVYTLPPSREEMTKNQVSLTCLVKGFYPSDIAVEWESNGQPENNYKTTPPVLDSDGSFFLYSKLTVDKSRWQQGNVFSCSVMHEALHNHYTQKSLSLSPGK
light: DFQLTQSPSSLSASVGDRVTITCERSSGDIGDSYVSWYQQKPGKAPKNVIYADDQRPSGVPSRFSGSGSGNSASLTISSLQPEDFATYFCQSYDINIDIVFGQGTKVEIKGGGSGGGDIQMTQSPSSLSASVGDRVTITCSASQDISNYLNWYQQKPGKAPKVLIYFTSSLHSGVPSRFSGSGSGTDFTLTISSLQPEDFATYYCQQYSTVPWTFGQGTKVEIKGGGSGRTVAAPSVFIFPPSDEQLKSGTASVVCLLNNFYPREAKVQWKVDNALQSGNSQESVTEQDSKDSTYSLSSTLTLSKADYEKHKVYACEVTHQGLSSPVTKSFNRGEC
notes: Anti-human VEGF-A/anti-human PDGF-BB cross-over DVD-Ig (CO-DVD-Ig); also called PR-1565044
B2: 4G8.3-GS(noR)-9E8.4 (g) (PR-1572104) (bispecific antibody, human IgG1, kappa, L234A L235A)
heavy: EVQLVQSGSELKKPGASVKVSCKASGYTFTNYGMYWVRQAPGQGLEWMGWINTETGKPTYADDFKGRFVFSLDTSVSTAYLQISSLKAEDTAVYYCARTNYYYRSYIFYFDYWGQGTMVTVSSGGGGSGGGGSEVTLRESGPALVKPTQTLTLTCTFSGFSLSTYGMGVGWIRQPPGKALEWLANIWWDDDKYYNPSLKNRLTISKDTSKNQVVLTMTNMDPVDTATYYCARIESIGTTYSFDYWGQGTMVTVSSASTKGPSVFPLAPSSKSTSGGTAALGCLVKDYFPEPVTVSWNSGALTSGVHTFPAVLQSSGLYSLSSVVTVPSSSLGTQTYICNVNHKPSNTKVDKKVEPKSCDKTHTCPPCPAPEAAGGPSVFLFPPKPKDTLMISRTPEVTCVVVDVSHEDPEVKFNWYVDGVEVHNAKTKPREEQYNSTYRVVSVLTVLHQDWLNGKEYKCKVSNKALPAPIEKTISKAKGQPREPQVYTLPPSREEMTKNQVSLTCLVKGFYPSDIAVEWESNGQPENNYKTTPPVLDSDGSFFLYSKLTVDKSRWQQGNVFSCSVMHEALHNAYTQKSLSLSPGK
light: DTVLTQSPATLSLSPGERATLSCRASESVSTHMHWYQQKPGQAPRLLIYGASNLESGVPARFSGSGSGTDFTLTISSLEPEDFAVYFCQQSWNDPFTFGQGTKLEIKGGSGGGGSGGEFVLTQSPGTLSLSPGERATLSCERSSGDIGDSYVSWYQQKPGQAPRLVIYADDQRPSGIPDRFSGSGSGTDFTLTISRLEPEDFAVYYCQSYDINIDIVFGGGTKVEIKRTVAAPSVFIFPPSDEQLKSGTASVVCLLNNFYPREAKVQWKVDNALQSGNSQESVTEQDSKDSTYSLSSTLTLSKADYEKHKVYACEVTHQGLSSPVTKSFNRGEC
notes: DVD-Ig; outer hBDB-4G8.3 (VEGF), linkers GS-H10/GS-L10(dR), inner hBDI-9E8.4 (PDGF); human IgG1 L234A, L235A, H435A / kappa
B3: 4G8.3-GS-9E8.4 (PR-1564010) (bispecific antibody, human IgG1, kappa, L234A L235A)
heavy: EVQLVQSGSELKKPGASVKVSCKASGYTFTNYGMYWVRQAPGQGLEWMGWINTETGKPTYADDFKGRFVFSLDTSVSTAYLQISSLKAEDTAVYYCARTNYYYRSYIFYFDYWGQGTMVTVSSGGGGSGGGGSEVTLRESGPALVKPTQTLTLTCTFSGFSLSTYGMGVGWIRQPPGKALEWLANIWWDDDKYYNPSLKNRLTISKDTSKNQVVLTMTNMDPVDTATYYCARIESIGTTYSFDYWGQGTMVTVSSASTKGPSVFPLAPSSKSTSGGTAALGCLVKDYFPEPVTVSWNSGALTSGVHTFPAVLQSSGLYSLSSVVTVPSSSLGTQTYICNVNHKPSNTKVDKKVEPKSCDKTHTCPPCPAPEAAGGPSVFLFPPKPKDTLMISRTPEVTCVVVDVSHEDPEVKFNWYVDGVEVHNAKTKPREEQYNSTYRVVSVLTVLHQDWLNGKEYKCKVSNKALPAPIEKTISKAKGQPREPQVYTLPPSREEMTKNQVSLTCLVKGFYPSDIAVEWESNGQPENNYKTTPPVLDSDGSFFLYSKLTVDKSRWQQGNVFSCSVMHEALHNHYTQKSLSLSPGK
light: B2 light with G108R, S110G, G111S, S115G, G116S, R228G
notes: DVD-Ig; outer hBDB-4G8.3 (VEGF), linkers GS-H10/GS-L10, inner hBDI-9E8.4 (PDGF); human IgG1 L234A, L235A / kappa
B4: 4G8.3-SS-9E8.4 (PR-1564011) (bispecific antibody, human IgG1, kappa, L234A L235A)
heavy: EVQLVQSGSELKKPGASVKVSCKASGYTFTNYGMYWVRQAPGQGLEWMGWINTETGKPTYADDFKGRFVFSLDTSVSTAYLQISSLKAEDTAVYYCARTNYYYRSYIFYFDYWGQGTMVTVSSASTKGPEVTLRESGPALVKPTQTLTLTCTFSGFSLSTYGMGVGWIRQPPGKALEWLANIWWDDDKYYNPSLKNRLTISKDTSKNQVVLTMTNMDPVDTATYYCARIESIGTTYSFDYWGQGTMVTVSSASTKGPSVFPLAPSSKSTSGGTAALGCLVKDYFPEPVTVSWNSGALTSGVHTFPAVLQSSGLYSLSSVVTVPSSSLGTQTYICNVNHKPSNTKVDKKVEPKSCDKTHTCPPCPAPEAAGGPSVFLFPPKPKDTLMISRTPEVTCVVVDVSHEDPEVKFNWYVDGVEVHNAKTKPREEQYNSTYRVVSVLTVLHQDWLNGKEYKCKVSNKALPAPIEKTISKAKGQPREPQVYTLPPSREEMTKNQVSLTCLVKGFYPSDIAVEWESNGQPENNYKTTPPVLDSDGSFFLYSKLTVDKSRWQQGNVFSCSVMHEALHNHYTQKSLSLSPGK
light: DTVLTQSPATLSLSPGERATLSCRASESVSTHMHWYQQKPGQAPRLLIYGASNLESGVPARFSGSGSGTDFTLTISSLEPEDFAVYFCQQSWNDPFTFGQGTKLEIKRTVAAPEFVLTQSPGTLSLSPGERATLSCERSSGDIGDSYVSWYQQKPGQAPRLVIYADDQRPSGIPDRFSGSGSGTDFTLTISRLEPEDFAVYYCQSYDINIDIVFGGGTKVEIKGTVAAPSVFIFPPSDEQLKSGTASVVCLLNNFYPREAKVQWKVDNALQSGNSQESVTEQDSKDSTYSLSSTLTLSKADYEKHKVYACEVTHQGLSSPVTKSFNRGEC
notes: DVD-Ig; outer hBDB-4G8.3 (VEGF), linkers HG-short/LK-short, inner hBDI-9E8.4 (PDGF); human IgG1 L234A, L235A / kappa
B5: 4G8.3-SL-9E8.4 (PR-1564012) (bispecific antibody, human IgG1, kappa, L234A L235A)
heavy: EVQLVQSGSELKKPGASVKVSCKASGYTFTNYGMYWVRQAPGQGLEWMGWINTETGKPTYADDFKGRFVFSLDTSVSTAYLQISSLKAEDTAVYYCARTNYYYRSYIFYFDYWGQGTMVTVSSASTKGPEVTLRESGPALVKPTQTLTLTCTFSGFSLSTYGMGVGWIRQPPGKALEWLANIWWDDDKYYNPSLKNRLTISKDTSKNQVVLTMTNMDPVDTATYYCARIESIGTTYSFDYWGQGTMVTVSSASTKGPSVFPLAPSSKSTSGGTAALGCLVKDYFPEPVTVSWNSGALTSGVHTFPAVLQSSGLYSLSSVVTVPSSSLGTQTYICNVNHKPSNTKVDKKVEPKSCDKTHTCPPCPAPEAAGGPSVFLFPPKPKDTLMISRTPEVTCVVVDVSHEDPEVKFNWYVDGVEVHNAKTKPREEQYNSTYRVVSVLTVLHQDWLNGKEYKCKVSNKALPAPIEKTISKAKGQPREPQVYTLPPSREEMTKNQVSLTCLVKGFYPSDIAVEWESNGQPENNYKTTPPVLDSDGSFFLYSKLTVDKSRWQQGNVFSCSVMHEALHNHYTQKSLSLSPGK
light: DTVLTQSPATLSLSPGERATLSCRASESVSTHMHWYQQKPGQAPRLLIYGASNLESGVPARFSGSGSGTDFTLTISSLEPEDFAVYFCQQSWNDPFTFGQGTKLEIKRTVAAPSVFIFPPEFVLTQSPGTLSLSPGERATLSCERSSGDIGDSYVSWYQQKPGQAPRLVIYADDQRPSGIPDRFSGSGSGTDFTLTISRLEPEDFAVYYCQSYDINIDIVFGGGTKVEIKGTVAAPSVFIFPPSDEQLKSGTASVVCLLNNFYPREAKVQWKVDNALQSGNSQESVTEQDSKDSTYSLSSTLTLSKADYEKHKVYACEVTHQGLSSPVTKSFNRGEC
notes: DVD-Ig; outer hBDB-4G8.3 (VEGF), linkers HG-short/LK-long, inner hBDI-9E8.4 (PDGF); human IgG1 L234A, L235A / kappa
B6: 4G8.3-SL-9E8.4 (g) (PR-1572105) (bispecific antibody, human IgG1, kappa, L234A L235A)
heavy: EVQLVQSGSELKKPGASVKVSCKASGYTFTNYGMYWVRQAPGQGLEWMGWINTETGKPTYADDFKGRFVFSLDTSVSTAYLQISSLKAEDTAVYYCARTNYYYRSYIFYFDYWGQGTMVTVSSASTKGPEVTLRESGPALVKPTQTLTLTCTFSGFSLSTYGMGVGWIRQPPGKALEWLANIWWDDDKYYNPSLKNRLTISKDTSKNQVVLTMTNMDPVDTATYYCARIESIGTTYSFDYWGQGTMVTVSSASTKGPSVFPLAPSSKSTSGGTAALGCLVKDYFPEPVTVSWNSGALTSGVHTFPAVLQSSGLYSLSSVVTVPSSSLGTQTYICNVNHKPSNTKVDKKVEPKSCDKTHTCPPCPAPEAAGGPSVFLFPPKPKDTLMISRTPEVTCVVVDVSHEDPEVKFNWYVDGVEVHNAKTKPREEQYNSTYRVVSVLTVLHQDWLNGKEYKCKVSNKALPAPIEKTISKAKGQPREPQVYTLPPSREEMTKNQVSLTCLVKGFYPSDIAVEWESNGQPENNYKTTPPVLDSDGSFFLYSKLTVDKSRWQQGNVFSCSVMHEALHNAYTQKSLSLSPGK
light: B5 light with G231R
notes: DVD-Ig; outer hBDB-4G8.3 (VEGF), linkers HG-short/LK-long, inner hBDI-9E8.4 (PDGF); human IgG1 L234A, L235A, H435A / kappa; also called hu VEGF 4G8.3-SL-hu PDGF 9E8.4 (germline) [hu IgG1/k]; LALA H435A; DVD-Ig-3
B7: 4G8.3-LS-9E8.4 (PR-1564013) (bispecific antibody, human IgG1, kappa, L234A L235A)
heavy: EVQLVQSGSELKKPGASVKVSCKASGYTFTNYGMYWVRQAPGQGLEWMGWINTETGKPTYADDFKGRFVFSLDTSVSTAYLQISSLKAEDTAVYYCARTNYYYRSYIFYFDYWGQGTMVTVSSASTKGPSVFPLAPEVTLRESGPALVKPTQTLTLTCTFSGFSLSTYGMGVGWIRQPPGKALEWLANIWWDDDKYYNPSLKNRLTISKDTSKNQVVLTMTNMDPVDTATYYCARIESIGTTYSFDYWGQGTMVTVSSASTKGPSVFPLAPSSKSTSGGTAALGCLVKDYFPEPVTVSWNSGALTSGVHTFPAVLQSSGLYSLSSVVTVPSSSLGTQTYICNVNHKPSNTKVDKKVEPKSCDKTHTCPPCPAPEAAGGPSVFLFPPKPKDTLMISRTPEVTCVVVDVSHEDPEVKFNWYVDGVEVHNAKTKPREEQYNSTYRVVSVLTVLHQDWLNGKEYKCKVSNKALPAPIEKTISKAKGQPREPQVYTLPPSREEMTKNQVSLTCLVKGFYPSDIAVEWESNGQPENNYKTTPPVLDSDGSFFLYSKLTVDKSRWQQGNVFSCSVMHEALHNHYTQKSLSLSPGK
light: B4 light
notes: DVD-Ig; outer hBDB-4G8.3 (VEGF), linkers HG-long/LK-short, inner hBDI-9E8.4 (PDGF); human IgG1 L234A, L235A / kappa
B8: DVD3904 (PR-1565031) (bispecific antibody, human IgG1, kappa, L234A L235A)
heavy: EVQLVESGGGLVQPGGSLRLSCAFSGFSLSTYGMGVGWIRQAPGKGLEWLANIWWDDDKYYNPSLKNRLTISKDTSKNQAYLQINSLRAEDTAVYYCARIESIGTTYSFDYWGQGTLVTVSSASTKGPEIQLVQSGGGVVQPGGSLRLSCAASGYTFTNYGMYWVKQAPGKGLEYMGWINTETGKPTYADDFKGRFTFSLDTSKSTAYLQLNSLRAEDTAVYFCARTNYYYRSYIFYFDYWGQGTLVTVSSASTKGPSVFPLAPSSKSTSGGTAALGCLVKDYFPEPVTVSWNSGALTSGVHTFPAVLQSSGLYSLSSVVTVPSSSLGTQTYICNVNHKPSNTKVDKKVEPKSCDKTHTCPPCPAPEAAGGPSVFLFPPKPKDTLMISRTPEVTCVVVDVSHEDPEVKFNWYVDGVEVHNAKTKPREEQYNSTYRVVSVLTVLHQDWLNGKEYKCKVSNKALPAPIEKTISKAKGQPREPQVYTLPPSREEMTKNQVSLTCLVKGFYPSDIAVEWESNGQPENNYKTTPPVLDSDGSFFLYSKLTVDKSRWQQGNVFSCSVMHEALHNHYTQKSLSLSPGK
light: DFQLTQSPSSLSASVGDRVTITCERSSGDIGDSYVSWYQQKPGKAPKNVIYADDQRPSGVPSRFSGSGSGNSASLTISSLQPEDFATYFCQSYDINIDIVFGQGTKVEIKGTVAAPSVFIFPPDTVLTQSPSTLSASPGERATISCRASESVSTHMHWYQQKPGQAPKLLIYGASNLESGVPSRFSGSRSGTDFTLTISSLQPEDFAVYFCQQSWNDPFTFGQGTKVEIKRTVAAPSVFIFPPSDEQLKSGTASVVCLLNNFYPREAKVQWKVDNALQSGNSQESVTEQDSKDSTYSLSSTLTLSKADYEKHKVYACEVTHQGLSSPVTKSFNRGEC
notes: DVD-Ig; linkers HG-short/LK-long, inner hBDB-4G8.14 (VEGF); human IgG1 L234A, L235A / kappa
B9: DVD3905 (PR-1565032) (bispecific antibody, human IgG1, kappa, L234A L235A)
heavy: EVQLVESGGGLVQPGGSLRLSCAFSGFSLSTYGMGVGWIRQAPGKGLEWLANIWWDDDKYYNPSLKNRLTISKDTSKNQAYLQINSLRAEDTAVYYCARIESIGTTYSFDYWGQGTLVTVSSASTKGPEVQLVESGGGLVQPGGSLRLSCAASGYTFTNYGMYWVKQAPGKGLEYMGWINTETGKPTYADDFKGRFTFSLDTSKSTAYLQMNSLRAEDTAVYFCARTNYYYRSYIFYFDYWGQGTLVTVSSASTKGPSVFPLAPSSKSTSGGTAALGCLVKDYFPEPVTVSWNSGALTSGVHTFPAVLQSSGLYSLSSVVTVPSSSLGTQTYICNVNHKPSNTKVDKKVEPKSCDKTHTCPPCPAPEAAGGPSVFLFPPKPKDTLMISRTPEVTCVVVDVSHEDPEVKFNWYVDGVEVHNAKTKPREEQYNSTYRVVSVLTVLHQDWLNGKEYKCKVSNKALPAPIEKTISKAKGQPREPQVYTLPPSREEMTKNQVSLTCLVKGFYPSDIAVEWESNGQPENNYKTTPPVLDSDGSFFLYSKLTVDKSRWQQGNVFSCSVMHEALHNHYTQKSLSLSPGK
light: B8 light with V126Q, T133S, P138V, E140D, A142V, Q165K, R189G, V208T
notes: DVD-Ig; outer hBDI-9E8.12 (PDGF), linkers HG-short/LK-long, inner hBDB-4G8.15 (VEGF); human IgG1 L234A, L235A / kappa
B10: DVD3906 (PR-1565035) (bispecific antibody, human IgG1, kappa, L234A L235A)
heavy: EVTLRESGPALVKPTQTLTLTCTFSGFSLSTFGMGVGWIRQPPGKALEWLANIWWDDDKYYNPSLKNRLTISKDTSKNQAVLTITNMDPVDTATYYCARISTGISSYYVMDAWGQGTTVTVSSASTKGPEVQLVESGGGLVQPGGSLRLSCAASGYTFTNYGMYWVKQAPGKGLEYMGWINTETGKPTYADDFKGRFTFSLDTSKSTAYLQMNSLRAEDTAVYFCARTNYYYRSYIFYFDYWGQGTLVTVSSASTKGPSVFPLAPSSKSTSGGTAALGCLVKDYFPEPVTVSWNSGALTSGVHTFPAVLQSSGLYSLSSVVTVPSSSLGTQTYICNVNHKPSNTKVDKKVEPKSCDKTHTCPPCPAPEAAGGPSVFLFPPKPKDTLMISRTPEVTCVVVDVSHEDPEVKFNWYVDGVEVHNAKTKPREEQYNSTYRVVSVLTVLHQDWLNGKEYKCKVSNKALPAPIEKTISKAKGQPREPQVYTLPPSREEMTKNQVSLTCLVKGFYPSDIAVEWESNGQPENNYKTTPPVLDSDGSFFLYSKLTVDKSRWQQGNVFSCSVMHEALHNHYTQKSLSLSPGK
light: DFQLTQSPSSLSASVGDRVTITCERSSGDIGDTYVSWYQQKPGKAPKNVIYGNDQRPSGVPSRFSGSGSGNSATLTISSLQPEDFATYFCQSYDSDIDIVFGQGTKVEIKGTVAAPSVFIFPPDTQLTQSPSSLSASVGDRVTISCRASESVSTHMHWYQQKPGKAPKLLIYGASNLESGVPSRFSGSGSGTDFTLTISSLQPEDFATYFCQQSWNDPFTFGQGTKVEIKRTVAAPSVFIFPPSDEQLKSGTASVVCLLNNFYPREAKVQWKVDNALQSGNSQESVTEQDSKDSTYSLSSTLTLSKADYEKHKVYACEVTHQGLSSPVTKSFNRGEC
notes: DVD-Ig; linkers HG-short/LK-long, inner hBDB-4G8.15 (VEGF); human IgG1 L234A, L235A / kappa
B11: 4G8.3-GS(11)-9E8.4 (g) (PR-1572103) (bispecific antibody, human IgG1, kappa, L234A L235A)
heavy: B2 heavy
light: DTVLTQSPATLSLSPGERATLSCRASESVSTHMHWYQQKPGQAPRLLIYGASNLESGVPARFSGSGSGTDFTLTISSLEPEDFAVYFCQQSWNDPFTFGQGTKLEIKRGGSGGGGSGGEFVLTQSPGTLSLSPGERATLSCERSSGDIGDSYVSWYQQKPGQAPRLVIYADDQRPSGIPDRFSGSGSGTDFTLTISRLEPEDFAVYYCQSYDINIDIVFGGGTKVEIKRTVAAPSVFIFPPSDEQLKSGTASVVCLLNNFYPREAKVQWKVDNALQSGNSQESVTEQDSKDSTYSLSSTLTLSKADYEKHKVYACEVTHQGLSSPVTKSFNRGEC
notes: DVD-Ig; outer hBDB-4G8.3 (VEGF), linkers GS-H10/GS-L11, inner hBDI-9E8.4 (PDGF); human IgG1 L234A, L235A, H435A / kappa

Target: T1, Human VEGF-A 165 (human, UniProt P15692 207-395)
T1 construct: also called hVEGF165
T1 sequence (P15692 other isoform, or with tags, fused parts or gaps limits assumed): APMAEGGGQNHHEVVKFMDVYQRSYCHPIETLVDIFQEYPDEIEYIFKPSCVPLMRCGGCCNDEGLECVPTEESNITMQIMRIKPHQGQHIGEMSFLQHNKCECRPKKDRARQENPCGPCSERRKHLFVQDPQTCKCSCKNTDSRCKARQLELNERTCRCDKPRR
Test: SPR (Biacore), method of Example 1.1
Description: (§1) Unreacted moieties on the biosensor surface were blocked with ethanolamine. For kinetic analysis, rate equations derived from the 1:1 Langmuir binding model were fitted simultaneously to multiple antigen injections (using global fit analysis) with the use of Scrubber 2 (BioLogic Software), Biacore Biaevaluation 4.0.1 software or Biacore T100 Evaluation software. Purified antibodies or DVD-Ig molecules were diluted in running buffer for capture across goat anti-human Fc reaction surfaces. Antibodies or DVD-Ig molecules to be captured as a ligand (1 μg/ml) were injected over reaction matrices at a flow rate of 10 μl/minute. During the assay, all measurements were referenced against the capture surface alone (i.e., with no captured antibody or DVD-Ig molecule). […] The equilibrium dissociation constant KD (M) of the reaction between antibodies and the target antigen was then calculated from the kinetic rate constants by the following formula: KD=Koff/Kₒₙ. Binding was recorded as a function of time and kinetic rate constants were calculated. In this assay, on-rates as fast as 10⁶M⁻¹s⁻¹ and off-rates as slow as 10⁻⁶ s⁻¹ could be measured.

Binder	binding result
B1	no binding

Target: T2, Human PDGF-BB (human, UniProt P01127 82-190)
T2 construct: also called hPDGF-BB
T2 sequence (P01127 82-190 limits assumed): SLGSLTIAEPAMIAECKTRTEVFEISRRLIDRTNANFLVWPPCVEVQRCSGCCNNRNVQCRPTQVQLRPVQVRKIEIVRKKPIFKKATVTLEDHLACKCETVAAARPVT
Test: SPR (Biacore), method of Example 1.1
Description: as §1

Binder	Kd [nM]	kon [M⁻¹ s⁻¹]
B1	0.011	2.3e+07

Target: VEGF-A (UniProt P15692-4 27-191, limits assumed)
Sequence (P15692 other isoform, or with tags, fused parts or gaps limits assumed): as the sequence (P15692 other isoform, or with tags, fused parts or gaps limits assumed) above
Test: SPR (Biacore), DVD-Ig captured by anti-human Fc, antigen in flow
Description: as §1, with “For example, approximately 9000 RU of goat anti-human Fc specific polyclonal antibody (Thermo Fisher Scientific Inc., Rockford, Ill.) diluted in 10 mM sodium acetate (pH 4.5) is directly immobilized across a CM5 research grade biosensor chip using a standard amine coupling kit according to manufacturer's instructions and procedures at 25 μg/ml. Unreacted” for “Unreacted”, “calculated.” for “calculated. In this assay, on-rates as fast as 10⁶M⁻¹s⁻¹ and off-rates as slow as 10⁻⁶ s⁻¹ could be measured.”

Binder	Kd [nM]	kon [M⁻¹ s⁻¹]
B2	0.011	6.1e+06
B3	0.017	3.3e+06
B4	0.013	3.1e+06
B5	0.013	3.1e+06
B6	0.011	5.6e+06
B7	0.012	3.1e+06
B8	0.19	610000
B9	0.094	1.1e+06
B10	0.1	920000
B11	0.012	6.3e+06

Target: PDGF-BB (UniProt P01127 82-190)
Sequence (P01127 82-190): as the sequence (P01127 82-190 limits assumed) above
Test: as above
Description: as §1, with “For example, approximately 9000 RU of goat anti-human Fc specific polyclonal antibody (Thermo Fisher Scientific Inc., Rockford, Ill.) diluted in 10 mM sodium acetate (pH 4.5) is directly immobilized across a CM5 research grade biosensor chip using a standard amine coupling kit according to manufacturer's instructions and procedures at 25 μg/ml. Unreacted” for “Unreacted”, “calculated.” for “calculated. In this assay, on-rates as fast as 10⁶M⁻¹s⁻¹ and off-rates as slow as 10⁻⁶ s⁻¹ could be measured.”

Binder	Kd [nM]	kon [M⁻¹ s⁻¹]
B2	0.0089	1.5e+07
B3	0.013	1e+07
B4	0.019	7.5e+06
B5	0.0099	1.4e+07
B6	0.013	1.3e+07
B7	0.0086	1.7e+07
B8	0.09	1e+07
B9	0.18	1e+07
B10	0.72	1e+07
B11	0.013	1.4e+07
